Biological target: recombinant Xenopus TACC3/maskin (TACC3-WT), full length, His6-tagged (Xenopus laevis) (UniProt Q9PTG8)
Test: sucrose density gradient centrifugation + SEC

recombinant Xenopus TACC3/maskin (TACC3-WT), full length, His6-tagged (Xenopus laevis), sequence (Q9PTG8 whole entry): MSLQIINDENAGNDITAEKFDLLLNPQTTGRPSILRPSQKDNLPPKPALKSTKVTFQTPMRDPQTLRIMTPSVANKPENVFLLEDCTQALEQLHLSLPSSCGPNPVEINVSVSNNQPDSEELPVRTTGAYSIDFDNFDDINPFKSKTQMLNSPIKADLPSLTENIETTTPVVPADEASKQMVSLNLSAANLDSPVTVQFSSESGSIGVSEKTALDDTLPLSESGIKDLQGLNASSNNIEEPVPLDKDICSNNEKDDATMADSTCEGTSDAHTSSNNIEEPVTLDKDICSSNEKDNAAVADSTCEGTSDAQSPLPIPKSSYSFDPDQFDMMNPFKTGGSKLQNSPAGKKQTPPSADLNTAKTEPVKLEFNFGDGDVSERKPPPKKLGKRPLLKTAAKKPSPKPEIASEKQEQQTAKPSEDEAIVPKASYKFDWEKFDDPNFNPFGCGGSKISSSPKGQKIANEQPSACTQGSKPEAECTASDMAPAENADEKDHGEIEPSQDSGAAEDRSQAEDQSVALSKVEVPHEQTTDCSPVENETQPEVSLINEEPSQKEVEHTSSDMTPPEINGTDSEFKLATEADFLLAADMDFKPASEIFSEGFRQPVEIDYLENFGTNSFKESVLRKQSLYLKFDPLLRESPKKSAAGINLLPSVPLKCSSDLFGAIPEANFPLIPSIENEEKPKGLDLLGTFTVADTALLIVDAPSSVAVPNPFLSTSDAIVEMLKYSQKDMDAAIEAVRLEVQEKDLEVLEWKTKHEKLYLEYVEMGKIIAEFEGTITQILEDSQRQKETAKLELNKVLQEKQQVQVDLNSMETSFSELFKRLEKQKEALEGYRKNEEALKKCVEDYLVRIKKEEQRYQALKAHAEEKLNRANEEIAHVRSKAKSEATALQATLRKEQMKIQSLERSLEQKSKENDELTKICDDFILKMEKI

- stoichiometry N: 1
Substance: recombinant XMAP215, Q9PT63 1-2065

Source: paper PMC2171544
